Assay results published in patent US20040219615.

Target: RAP-2 (RIP-associated protein-2), full-length
Sequence (chain, as listed by the source): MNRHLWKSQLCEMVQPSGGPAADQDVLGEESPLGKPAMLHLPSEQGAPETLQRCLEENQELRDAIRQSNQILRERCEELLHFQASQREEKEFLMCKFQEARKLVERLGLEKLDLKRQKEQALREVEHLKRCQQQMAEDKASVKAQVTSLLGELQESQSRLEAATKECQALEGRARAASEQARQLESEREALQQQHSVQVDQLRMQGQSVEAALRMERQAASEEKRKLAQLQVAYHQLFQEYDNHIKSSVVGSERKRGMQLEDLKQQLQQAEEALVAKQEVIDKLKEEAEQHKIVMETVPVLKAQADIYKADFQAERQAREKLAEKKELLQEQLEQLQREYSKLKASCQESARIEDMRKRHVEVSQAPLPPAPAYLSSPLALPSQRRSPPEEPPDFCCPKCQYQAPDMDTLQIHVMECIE

B1: IKK1 (protein)
chain: MERPPGLRPGAGGPWEMRERLGTGGFGNVCLYQHRELDLKIAIKSCRLELSTKNRERWCHEIQIMKKLNHANVVKACDVPEELNILIHDVPLLAMEYCSGGDLRKLLNKPENCCGLKESQILSLLSDIGSGIRYLHENKIIHRDLKPENIVLQDVGGKIIHKIIDLGYAKDVDQGSLCTSFVGTLQYLAPELFENKPYTATVDYWSFGTMVFECIAGYRPFLHHLQPFTWHEKIKKKDPKCIFACEEMSGEVRFSSHLPQPNSLCSLVVEPMENWLQLMLNWDPQQRGGPVDLTLKQPRCFVLMDHILNLKIVHILNMTSAKIISFLLPPDESLHSLQSRIERETGINTGSQELLSETGISLDPRKPASQCVLDGVRGCDSYMVYLFDKSKTVYEGPFASRSLSDCVNYIVQDSKIQLPIIQLRKVWAEAVHYVSGLKEDYSRLFQGQRAAMLSLLRYNANLTKMKNTLISASQQLKAKLEFFHKSIQLDLERYSEQMTYGISSEKMLKAWKEMEEKAIHYAEVGVIGYLEDQIMSLHAEIMELQKSPYGRRQGDLMESLEQRAIDLYKQLKHRPSDHSYSDSTEMVKIIVHTVQSQDRVLKELFGHLSKLLGCKQKIIDLLPKVEVALSNIKEADNTVMFMQGKRQKEIWHLLKIACTQSSARSLVGSSLEGAVTPQTSAWLPPTSAEHDHSLSCVVTPQDGETSAQMIEENLNCLGHLSTIIHEANEEQGNSMMNLDWSWLTE
  in vitro phosphorylation of the immunoprecipitated complex: RAP-2 becomes phosphorylated

B2: RIP (receptor interacting protein) (protein)
chain: MQPDMSLNVIKMKSSDFLESAELDSGGFGKVSLCFHRTQGLMIMKTVYKGPNCIEHNEALLEEAKMMNRLRHSRVVKLLGVIIEEGKYSLVMEYMEKGNLMHVLKAEMSTPLSVKGRIILEIIEGMCYLHGKGVIHKDLKPENILVDNDFHIKIADLGLASFKMWSKLNNEEHNELREVDGTAKKNGGTLYYMAPEHLNDVNAKPTEKSDVYSFAVVLWAIFANKEPYENAICEQQLIMCIKSGNRPDVDDITEYCPREIISLMKLCWEANPEARPTFPGIEEKFRPFYLSQLEESVEEDVKSLKKEYSNENAVVKRMQSLQLDCVAVPSSRSNSATEQPGSLHSSQGLGMGPVEESWFAPSLEHPQEENEPSLQSKLQDEANYHLYGSRMDRQTKQQPRQNVAYNREEERRRRVSHDPFAQQRPYENFQNTEGKGTAYSSAASHGNAVHQPSGLTSQPQVLYQNNGLYSSHGFGTRPLDPGTAGPRVWYRPIPSHMPSLHNIPVPETNYLGNTPTMPFSSLPPTDESIKYTIYNSTGIQIGAYNYMEIGGTSSSLLDSTNTNFKEEPAAKYQAIFDNTTSLTDKHLDPIRENLGKHWKNCARKLGFTQSQIDEIDHDYERDGLKEKVYQMLQKWVMREGIKGATVGKLAQALHQCSRIDLLSSLIYVSQN
  in vitro immunocomplex kinase assay: over-expressed RIP did not phosphorylate RAP-2
